Results as given in PMC12282641.

Legend:
[1] = GCaMP6s imaging, 100 AP 10 Hz; details: glycan lost; control: WT-HK1-BFP
[2] = anti-HK1 blot of HEK293T lysates; details: glycan lost; control: WT-HK1
[3] = HYlight FBP sensor, axons, 100 AP 10 Hz; details: glycan lost; control: WT-HK1-FLAG
[4] = multi-electrode array, rat cortical neurons; details: glycan lost; control: WT-HK1
[5] = fractionation blots for Aldo A, PGK, PKM2, HEK293T; details: glycan lost; control: WT-HK1 cells, response to OGT + Thiamet-G
[6] = iATPSnFR1.0 imaging, hippocampal neurons, 100 AP 10 Hz; details: glycan lost; control: WT-HK1-BFP

B1: Hexokinase 1 (HK1): T259A (protein)
parent chain: MIAAQLLAYYFTELKDDQVKKIDKYLYAMRLSDETLIDIMTRFRKEMKNGLSRDFNPTATVKMLPTFVRSIPDGSEKGDFIALDLGGSSFRILRVQVNHEKNQNVHMESEVYDTPENIVHGSGSQLFDHVAECLGDFMEKRKIKDKKLPVGFTFSFPCQQSKIDEAILITWTKRFKASGVEGADVVKLLNKAIKKRGDYDANIVAVVNDTVGTMMTCGYDDQHCEVGLIIGTGTNACYMEELRHIDLVEGDEGRMCINTEWGAFGDDGSLEDIRTEFDREIDRGSLNPGKQLFEKMVSGMYLGELVRLILVKMAKEGLLFEGRITPELLTRGKFNTSDVSAIEKNKEGLHNAKEILTRLGVEPSDDDCVSVQHVCTIVSFRSANLVAATLGAILNRLRDNKGTPRLRTTVGVDGSLYKTHPQYSRRFHKTLRRLVPDSDVRFLLSESGSGKGAAMVTAVAYRLAEQHRQIEETLAHFHLTKDMLLEVKKRMRAEMELGLRKQTHNNAVVKMLPSFVRRTPDGTENGDFLALDLGGTNFRVLLVKIRSGKKRTVEMHNKIYAIPIEIMQGTGEELFDHIVSCISDFLDYMGIKGPRMPLGFTFSFPCQQTSLDAGILITWTKGFKATDCVGHDVVTLLRDAIKRREEFDLDVVAVVNDTVGTMMTCAYEEPTCEVGLIVGTGSNACYMEEMKNVEMVEGDQGQMCINMEWGAFGDNGCLDDIRTHYDRLVDEYSLNAGKQRYEKMISGMYLGEIVRNILIDFTKKGFLFRGQISETLKTRGIFETKFLSQIESDRLALLQVRAILQQLGLNSTCDDSILVKTVCGVVSRRAAQLCGAGMAAVVDKIRENRGLDRLNVTVGVDGTLYKLHPHFSRIMHQTVKELSPKCNVSFLLSEDGSGKGAALITAVGVRLRTEASS
In the case of B1, the “other: presynaptic calcium dynamics” value [1] is reported as “no change”, the expression_or_secretion [2] is reported as “no change” and the “other: activity-evoked glycolysis (FBP level)” value [3] is reported as “abolishes”. The “other: neuronal network activity” value [4] was “decreases”, the “other: glycolytic enzyme recruitment to mitochondria” value [5] was “abolishes” and the “other: axonal ATP recovery after stimulation” value [6] was “abolishes”.
